Reference: patent publication US20110034673A1

Target: human HB-EGF on cells (membrane type and cell membrane-bound HB-EGF of human cancer cell lines) (human) (UniProt Q99075)
Experiment: cell-based or functional assay

Sequence of human HB-EGF on cells (membrane type and cell membrane-bound HB-EGF of human cancer cell lines) (human) (Q99075 63-148 limits assumed): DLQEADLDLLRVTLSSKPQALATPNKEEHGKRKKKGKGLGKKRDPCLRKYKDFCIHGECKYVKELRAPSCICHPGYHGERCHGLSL

ADCC activity relative to KM3966 (fold of KM3966): 0.1
B1: anti-HB-EGF humanized antibody HV0LV0 (antibody, V domains shown)
VH: QVQLVQSGAEVKKPGASVKVSCKASGYTFTTYGITWVRQAPGQGLEWMGEIFPGSGNTYYNEKFKGRVTITADKSTSTAYMELSSLRSEDTAVYYCARESFSDGYYGYFDYWGQGTLVTVSS
VL: DIVMTQSPDSLAVSLGERATINCKSSQSLLYSTNQKNSLAWYQQKPGQPPKLLIYWASTRESGVPDRFSGSGSGTDFTLTISSLQAEDVAVYYCQQYYRYPLTFGQGTKLEIK
